The assay has as its target HLA-A*0201 (human), A*02:0. Nature of the assay: REVEAL MHC binding assay (ProImmune).

The molecule FLYGVILTV (modifications not checked) [Peptide ID 131 … (TCR_TV, modified peptide)] registered a % Pass/fail control (% of pass/fail control) of 257.
